Drawing on patent publication US20110064740A1, this text covers % of LN27 binding for two substances.

The target of experiment [1] is Cell-surface full length amyloid precursor protein (APP) on HEK293T cells transfected with wild type APP DNA (UniProt P05067). Put plainly: FMAT ABI8200, HEK293T cells transfected with wild type APP, mock subtracted; Experiment 2.
Experiment [2] has the same target. Briefly: FMAT ABI8200, HEK293T cells transfected with wild type APP, mock subtracted; Experiment 1.

Chain of Cell-surface full length amyloid precursor protein (APP) on HEK293T cells transfected with wild type APP DNA (P05067 18-770): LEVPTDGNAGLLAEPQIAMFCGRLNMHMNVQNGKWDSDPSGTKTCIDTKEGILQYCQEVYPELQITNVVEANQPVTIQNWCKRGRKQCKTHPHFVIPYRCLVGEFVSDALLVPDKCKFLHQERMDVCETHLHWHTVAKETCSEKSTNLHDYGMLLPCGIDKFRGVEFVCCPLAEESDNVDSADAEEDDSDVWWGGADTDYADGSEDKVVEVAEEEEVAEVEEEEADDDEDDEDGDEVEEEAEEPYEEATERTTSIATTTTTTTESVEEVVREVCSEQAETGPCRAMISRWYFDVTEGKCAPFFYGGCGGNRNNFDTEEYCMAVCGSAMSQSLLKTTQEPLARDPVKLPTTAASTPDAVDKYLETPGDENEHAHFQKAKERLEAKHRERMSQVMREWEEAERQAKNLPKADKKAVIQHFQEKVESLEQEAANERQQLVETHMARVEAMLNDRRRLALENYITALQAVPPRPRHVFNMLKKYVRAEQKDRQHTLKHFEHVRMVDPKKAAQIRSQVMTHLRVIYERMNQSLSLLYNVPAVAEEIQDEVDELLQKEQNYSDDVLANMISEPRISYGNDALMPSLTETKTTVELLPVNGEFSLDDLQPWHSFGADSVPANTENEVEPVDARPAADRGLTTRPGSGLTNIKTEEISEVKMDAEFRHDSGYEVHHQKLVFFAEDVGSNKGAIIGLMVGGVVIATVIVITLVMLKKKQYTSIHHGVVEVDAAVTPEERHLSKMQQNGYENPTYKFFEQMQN

“Antibody G210 which recognises the x-40 form of the β-amyloid peptide”: the % of LN27 binding in experiment [1] came to 2%; in experiment [2] it was 5.5%.
As to “LN27 (Zymed) mouse IgG to extracellular domain of APP (antibody)”, the % of LN27 binding in experiment [1] and in experiment [2] was 100% throughout.
